Source: article doi:10.1101/2025.01.21.634112

What was measured:
[1] = molecular target: Monodelphis domestica von Willebrand Factor (VWF) (Monodelphis domestica)
[2] = molecular target: human von Willebrand Factor (VWF) (human) (UniProt P04275)

botrocetin from Bothrops jararaca (complex)
reduction in the overall extent of platelet adhesion to collagen under flow (60 dyn/cm^2, 10 min) in opossum PRP with 4 ug/mL botrocetin, compared to the negative control [1]: 39%
reduction in the overall extent of platelet adhesion to collagen under flow (60 dyn/cm^2, 10 min) in human PRP with 4 ug/mL botrocetin, compared to the negative control [2]: 66%
